The values below come from the supplement of paper PMC7125110.

B1: glmS ribozyme (parent)
chain: AUAAAAGCGCCAGAACUACAGAAAUGUAGUUGACGAGGAGGAGGUUUAUCGAAUUUUCGGCGGAUGCCUCCAAA

Conditions in all cases: with glucosamine-6-phosphate
Series [1] covers variants of B1. The series can be described thus: self-cleavage kobs at 40 uM GlcN6P; higher = faster cleavage; RNA array. The gist of the method:
(§1)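 The measurements used barcoded ribozyme variants on sequenced MiSeq chips, transcribed in situ by E. coli RNA polymerase and tracked at 37 °C with a hybridised Cy3 probe. Glucosamine-6-phosphate, 40 μM to 10 mM in HEPES/KCl/Mg(OAc)2 buffer, was flowed in while tiles were imaged over ~14 h. Baseline-normalised signals, also normalised to non-cleaving reference variants, gave per-tile medians that were fit to one- or two-exponential decays for kobs. kcat and KM resulted from weighted Michaelis–Menten fits across concentrations.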

The variants in series [2] derive from B1. The series can be described thus: self-cleavage kobs at 10000 uM GlcN6P; higher = faster cleavage; RNA array. Summed up: as §1
The variants in series [3] derive from B1. Nature of the series: self-cleavage kobs at 160 uM GlcN6P; higher = faster cleavage; RNA array. Summed up: as §1
Series [4] covers variants of B1. The series can be described thus: self-cleavage kobs at 640 uM GlcN6P; higher = faster cleavage; RNA array. Summed up: as §1
Series [5] covers variants of B1. Nature of the series: self-cleavage kobs at 2500 uM GlcN6P; higher = faster cleavage; RNA array. The gist of the method: as §1

± gives the standard error. This sample holds only a part of the variants without activity.

For C16A U47C C50G G66A C67U U69G, the “self-cleavage kobs at 40 uM GlcN6P” value in the series with glucosamine-6-phosphate [1] amounted to 7.74e-05 ± 2.6e-05 s⁻¹. Besides, the “self-cleavage kobs at 10000 uM GlcN6P” value in the series with glucosamine-6-phosphate [2] is 4.24e-05 ± 1.6e-05 s⁻¹.
With G29C C34U, the “self-cleavage kobs at 40 uM GlcN6P” value in the series with glucosamine-6-phosphate [1] is less than 1e-05 s⁻¹. The “self-cleavage kobs at 160 uM GlcN6P” value in the series with glucosamine-6-phosphate [3] was less than 1e-05 s⁻¹. Besides, the “self-cleavage kobs at 640 uM GlcN6P” value with glucosamine-6-phosphate [4] is less than 1e-05 s⁻¹. The “self-cleavage kobs at 2500 uM GlcN6P” value in the series with glucosamine-6-phosphate [5] is less than 1e-05 s⁻¹. Further, the “self-cleavage kobs at 10000 uM GlcN6P” value in the series with glucosamine-6-phosphate [2] is less than 1e-05 s⁻¹.
As for C11G A53U, the “self-cleavage kobs at 40 uM GlcN6P” value in the series with glucosamine-6-phosphate [1] was less than 1e-05 s⁻¹.
As to C8A U25C G37U U69G, the “self-cleavage kobs at 40 uM GlcN6P” value with glucosamine-6-phosphate [1] was found to be 0.000134 ± 3.6e-05 s⁻¹. Further, in the series with glucosamine-6-phosphate [4], the “self-cleavage kobs at 640 uM GlcN6P” value worked out at 0.000488 ± 0.00011 s⁻¹.
Regarding G38A U46C A53C U54C C68A, the “self-cleavage kobs at 40 uM GlcN6P” value with glucosamine-6-phosphate [1] is less than 1e-05 s⁻¹. The “self-cleavage kobs at 10000 uM GlcN6P” value with glucosamine-6-phosphate [2] is less than 1e-05 s⁻¹.
In the case of A14G G38A, the “self-cleavage kobs at 40 uM GlcN6P” value in the series with glucosamine-6-phosphate [1] is less than 1e-05 s⁻¹.
On to C11U G32C, for which the “self-cleavage kobs at 40 uM GlcN6P” value in the series with glucosamine-6-phosphate [1] is less than 1e-05 s⁻¹. Moreover, the “self-cleavage kobs at 160 uM GlcN6P” value with glucosamine-6-phosphate [3] is less than 1e-05 s⁻¹. Also, the “self-cleavage kobs at 640 uM GlcN6P” value with glucosamine-6-phosphate [4] was less than 1e-05 s⁻¹. For the same variant, in the series with glucosamine-6-phosphate [2], the “self-cleavage kobs at 10000 uM GlcN6P” value was less than 1e-05 s⁻¹.
Consider C11G U46A C67G, for which the “self-cleavage kobs at 40 uM GlcN6P” value with glucosamine-6-phosphate [1] is less than 1e-05 s⁻¹. In the series with glucosamine-6-phosphate [2], the “self-cleavage kobs at 10000 uM GlcN6P” value is less than 1e-05 s⁻¹.
Turning to A48G C61U G66C C70U, the “self-cleavage kobs at 40 uM GlcN6P” value with glucosamine-6-phosphate [1] was less than 1e-05 s⁻¹.
Regarding A36C G44A, the “self-cleavage kobs at 40 uM GlcN6P” value in the series with glucosamine-6-phosphate [1] is less than 1e-05 s⁻¹. Moreover, the “self-cleavage kobs at 160 uM GlcN6P” value with glucosamine-6-phosphate [3] was less than 1e-05 s⁻¹. Also, the “self-cleavage kobs at 640 uM GlcN6P” value in the series with glucosamine-6-phosphate [4] was less than 1e-05 s⁻¹. Moreover, the “self-cleavage kobs at 2500 uM GlcN6P” value with glucosamine-6-phosphate [5] was less than 1e-05 s⁻¹. The “self-cleavage kobs at 10000 uM GlcN6P” value with glucosamine-6-phosphate [2] is less than 1e-05 s⁻¹.
Turning to C11G A36C U55C, in the series with glucosamine-6-phosphate [1], the “self-cleavage kobs at 40 uM GlcN6P” value is less than 1e-05 s⁻¹. For the same variant, the “self-cleavage kobs at 640 uM GlcN6P” value with glucosamine-6-phosphate [4] is less than 1e-05 s⁻¹.
In the case of A33G U55C G59A, in the series with glucosamine-6-phosphate [1], the “self-cleavage kobs at 40 uM GlcN6P” value was less than 1e-05 s⁻¹. In addition, in the series with glucosamine-6-phosphate [4], the “self-cleavage kobs at 640 uM GlcN6P” value is less than 1e-05 s⁻¹. Also, the “self-cleavage kobs at 2500 uM GlcN6P” value with glucosamine-6-phosphate [5] is less than 1e-05 s⁻¹. Moreover, the “self-cleavage kobs at 10000 uM GlcN6P” value with glucosamine-6-phosphate [2] is less than 1e-05 s⁻¹.
Take G35C U46C: in the series with glucosamine-6-phosphate [1], the “self-cleavage kobs at 40 uM GlcN6P” value was less than 1e-05 s⁻¹. In addition, the “self-cleavage kobs at 640 uM GlcN6P” value with glucosamine-6-phosphate [4] was less than 1e-05 s⁻¹. Moreover, the “self-cleavage kobs at 2500 uM GlcN6P” value with glucosamine-6-phosphate [5] was less than 1e-05 s⁻¹.
Regarding A36G A64U U65G, the “self-cleavage kobs at 40 uM GlcN6P” value with glucosamine-6-phosphate [1] is less than 1e-05 s⁻¹. In the series with glucosamine-6-phosphate [4], the “self-cleavage kobs at 640 uM GlcN6P” value was less than 1e-05 s⁻¹. For the same variant, the “self-cleavage kobs at 2500 uM GlcN6P” value with glucosamine-6-phosphate [5] is less than 1e-05 s⁻¹. Moreover, the “self-cleavage kobs at 10000 uM GlcN6P” value in the series with glucosamine-6-phosphate [2] is less than 1e-05 s⁻¹.
In the case of A6G G40U A52G U65G, the “self-cleavage kobs at 40 uM GlcN6P” value with glucosamine-6-phosphate [1] is less than 1e-05 s⁻¹. For the same variant, in the series with glucosamine-6-phosphate [2], the “self-cleavage kobs at 10000 uM GlcN6P” value is less than 1e-05 s⁻¹.
For the variant C8G C16G G41A U47A, the “self-cleavage kobs at 40 uM GlcN6P” value with glucosamine-6-phosphate [1] was less than 1e-05 s⁻¹. In the series with glucosamine-6-phosphate [4], the “self-cleavage kobs at 640 uM GlcN6P” value is less than 1e-05 s⁻¹. The “self-cleavage kobs at 2500 uM GlcN6P” value in the series with glucosamine-6-phosphate [5] is less than 1e-05 s⁻¹. For the same variant, the “self-cleavage kobs at 10000 uM GlcN6P” value in the series with glucosamine-6-phosphate [2] was less than 1e-05 s⁻¹.
For A15U G29A G43A, the “self-cleavage kobs at 40 uM GlcN6P” value in the series with glucosamine-6-phosphate [1] was less than 1e-05 s⁻¹. For the same variant, the “self-cleavage kobs at 10000 uM GlcN6P” value with glucosamine-6-phosphate [2] is less than 1e-05 s⁻¹.
Turning to G9C A14U G51A C70G, the “self-cleavage kobs at 40 uM GlcN6P” value in the series with glucosamine-6-phosphate [1] is less than 1e-05 s⁻¹.
Consider A15G C34A G62U, for which the “self-cleavage kobs at 40 uM GlcN6P” value with glucosamine-6-phosphate [1] is less than 1e-05 s⁻¹. In addition, the “self-cleavage kobs at 10000 uM GlcN6P” value with glucosamine-6-phosphate [2] is less than 1e-05 s⁻¹.
In the case of G13C U49G, the “self-cleavage kobs at 40 uM GlcN6P” value with glucosamine-6-phosphate [1] is less than 1e-05 s⁻¹. In addition, the “self-cleavage kobs at 160 uM GlcN6P” value with glucosamine-6-phosphate [3] is less than 1e-05 s⁻¹. In the series with glucosamine-6-phosphate [4], the “self-cleavage kobs at 640 uM GlcN6P” value was less than 1e-05 s⁻¹.
In the case of A33U A64C, the “self-cleavage kobs at 40 uM GlcN6P” value in the series with glucosamine-6-phosphate [1] was less than 1e-05 s⁻¹. Moreover, the “self-cleavage kobs at 160 uM GlcN6P” value with glucosamine-6-phosphate [3] was less than 1e-05 s⁻¹. Moreover, in the series with glucosamine-6-phosphate [4], the “self-cleavage kobs at 640 uM GlcN6P” value is less than 1e-05 s⁻¹. Moreover, the “self-cleavage kobs at 10000 uM GlcN6P” value in the series with glucosamine-6-phosphate [2] was less than 1e-05 s⁻¹.
On to G9U G51A, for which the “self-cleavage kobs at 40 uM GlcN6P” value with glucosamine-6-phosphate [1] was less than 1e-05 s⁻¹. Also, the “self-cleavage kobs at 160 uM GlcN6P” value with glucosamine-6-phosphate [3] was less than 1e-05 s⁻¹. For the same variant, in the series with glucosamine-6-phosphate [4], the “self-cleavage kobs at 640 uM GlcN6P” value is less than 1e-05 s⁻¹. In the series with glucosamine-6-phosphate [2], the “self-cleavage kobs at 10000 uM GlcN6P” value is less than 1e-05 s⁻¹.
As for G40A G44A C70U, the “self-cleavage kobs at 40 uM GlcN6P” value with glucosamine-6-phosphate [1] was less than 1e-05 s⁻¹. Moreover, the “self-cleavage kobs at 10000 uM GlcN6P” value with glucosamine-6-phosphate [2] is less than 1e-05 s⁻¹.
Take A15U G29C A48G C71A: the “self-cleavage kobs at 40 uM GlcN6P” value in the series with glucosamine-6-phosphate [1] is less than 1e-05 s⁻¹.
In the case of G7A C50G, the “self-cleavage kobs at 40 uM GlcN6P” value in the series with glucosamine-6-phosphate [1] was 4.24e-05 ± 1.5e-05 s⁻¹. Also, the “self-cleavage kobs at 160 uM GlcN6P” value in the series with glucosamine-6-phosphate [3] amounted to 6.67e-05 ± 2e-05 s⁻¹.
With A12G C34G G38C A39C A42U G60C C71U, the “self-cleavage kobs at 40 uM GlcN6P” value with glucosamine-6-phosphate [1] is less than 1e-05 s⁻¹.
